This test deals with glutathione S-transferase (UniProt P08515 1-218 = GST). Put plainly: SPR. A general note: In SPR one partner is held on a chip, and binding of the other changes the refractive index at the surface.

Among the data in patent US20230176070A1 (published 2023) are Kd values, retold here.

Chain of glutathione S-transferase (P08515 whole entry): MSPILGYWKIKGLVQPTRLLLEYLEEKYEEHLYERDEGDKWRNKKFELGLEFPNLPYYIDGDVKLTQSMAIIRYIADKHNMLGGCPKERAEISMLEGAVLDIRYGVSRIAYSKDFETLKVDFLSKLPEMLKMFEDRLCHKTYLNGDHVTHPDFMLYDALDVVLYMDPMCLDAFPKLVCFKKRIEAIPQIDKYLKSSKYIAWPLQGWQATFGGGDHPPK

B1: G47 (VHH)
VHH: QVQLVESGGGLVQAGGSLRLSCAASERIFSNYAMGWFRQAPGKEREFVASIRGSGSQTSYADSVKGRFTISRDGAKDTVDLQMNSLKPEDTAVYYCSAKKYCGSTYNRAEGYDYWGQGTQVTVSS
The term Kd denotes the free concentration of one partner at which half of the binding sites on the other are occupied at equilibrium, for simple one-to-one binding. High values mean a looser complex, low ones a tighter complex. For B1, the Kd worked out at 17.6 nM.
